In PMC8266614, “Stabilization of Hfq-mediated translational repression by the co-repressor Crc in Pseudomonas aeruginosa” (Nucleic Acids Research, 2021):

Molecular target: T1, Hfq_(S65C)-Flag (P. aeruginosa, UniProt Q9HUM0 1-82, S65C)
T1 construct: also called Hfq S65C-Flag protomer of Hfq*; source: E. coli JW4130F'Δhfq(pKEHfqPae); not shown: FLAG, C-terminal, kept
Test: co-IP
Conditions: both partners purified

B1: P. aeruginosa Hfq, wild type (natural protein)
chain: MSKGHSLQDPYLNTLRKERVPVSIYLVNGIKLQGQIESFDQFVILLKNTVSQMVYKHAISTVVPSRPVRLPSGDQPAEPGNA
notes: RNA chaperone Hfq of Pseudomonas aeruginosa, wild type, from plasmid pKEHfqPae; In the row with m4 the wild-type protomer inside the mixed hexamer is meant; also called Hfq wt; Pae Hfq; source: for Hfq* co-produced with Hfq_(S65C)-Flag in the same strain
- stoichiometry N: 1 Hfq wt per Hfq_(S65C)-Flag
